Source: article PMC3690595 (Biochemistry, 2013)

Target: the molecule itself
Assay: 2D-DIGE with tandem mass spectrometry of picked spots

B1: βB1-crystallin (natural protein, mouse (endogenous in mouse lens), UniProt Q9WVJ5 1-250, looked up)
chain: MSQAAKASATTAVNPGPDGKGKGAPSTGPAPAPGPTPVPASVPRPAAKVGDLPPGSYRLIVFEQENFQGRRVEFSGECLNLGDRGFDRVRSLIVVSGPWVAFEQSAFRGEMFVLEKGEYPRWDTWTSSYRSDRLMSFRPIRMDSQEHKICLFEGANFKGNTMEIQEDDVPSLWVYGFCDRVGSITVSGGTWVGYQYPGYRGYQYLLEPGDFRHWNEWGAFQPQMQAVRRLRDRQWHQEGCFPVLTAEPPK
With B1 the “stoichiometry N” value was 2.
